Assay results reported in patent US20250235545A1, “POLYPEPTIDE CONJUGATE AND USE THEREOF” (SHANGHAI CHIXI BIOMEDICAL TECHNOLOGY CO., LTD, priority 2024, published 2025).
In brackets after ≈: the same amount, converted by molar mass. Where two headings read alike, the source gives them in different places. Where a SMILES comes first, the peptide text is derived from it. The star is where a group is joined. Belotecan = CC[C@@]1(O)C(=O)OCc2c1cc1n(c2=O)Cc2c-1nc1ccccc1c2CCN(C(C)C)*; X8 = CC[C@@]1(O)C(=O)OCc2c1cc1n(c2=O)Cc2c-1nc1ccccc1c2CCN(C1CCCC1)*; X7 = CC[C@@]1(O)C(=O)OCc2c1cc1n(c2=O)Cc2c-1nc1ccccc1c2CCN(C)*; Propanoyl(3-maleimido) = O=C1C=CC(=O)N1CCC(=O)*; PEG6 = NCCOCCOCCOCCOCCOCCOCCC(=O)O

Tests used:
[1] = Tumor homogenate activation efficiency, non-small cell lung cancer tissue (Examples 28, 37); type: in vitro ADME; conditions: pH 5.0, 37° C., 2 h; Table 10
How it was run: (§1)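 HPLC read-out: release % = Belotecan peak area / summed areas of Belotecan plus every Belotecan-containing compound. Samples were 1 mg/ml conjugate with 100 μg handheld-homogenized tissue in pH 5.0 MES/NaCl buffer, held 2 h at 37° C.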

[2] = Tumor homogenate activation efficiency, ovarian cancer tissue (Examples 28, 37); type: in vitro ADME; conditions: pH 5.0, 37° C., 2 h; Table 10
How it was run: as §1

[3] = test system: sarcoma SJSA-1 tumor model; conditions: Table 7
How it was run: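 Female BALB/c nude mice (6-8 weeks) bearing subcutaneous right-chest SJSA-1 xenografts from 2×10^7 cells were randomized, three per group, once tumors reached at least 100 mm^3. Treatment given once a week for three weeks starting day 1; saline controls.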

[4] = Tumor homogenate activation efficiency, colorectal cancer tissue (Example 37); type: in vitro ADME; conditions: pH 5.0, 37° C., 2 h; Table 10
Method: Buffer preparation: 50 mM PH buffer (MES), 250 mM NaCl, pH adjusted to 5.0 with 0.5 M of sodium hydroxide.
The polypeptide conjugate was prepared into a 1 mg/ml solution with pH 5.0 buffer, 100 μg of tumor tissue homogenate was added, (the tumor tissue homogenate was the homogenate of tumor tissues prepared with a Jingxin F6/10 handheld homogenizer), and the solution was placed at 37° C. for 2 h. The tumor tissue homogenate could effectively activate the polypeptide conjugate and release Belotecan, and the activation efficiencies of the drugs in tumor tissues were compared by HPLC allowing determination of a decrease in the compounds and an increase in Belotecan:
Release percentage=peak area of Belotecan/total peak area of Belotecan and all other Belotecan-containing compounds

[5] = Tumor homogenate activation efficiency, sarcoma tissue (Examples 28, 37); type: in vitro ADME; conditions: pH 5.0, 37° C., 2 h; Table 10
How it was run: as §1

[6] = MTD determination in mice (Examples 27, 36, 44); type: in vivo; conditions: female, mouse, in vivo; mice, monitored for 14 d; Table 9
Text: Test animals: 6-8 weeks old mice, all female; mice were grouped randomly, with six mice in each group, administered with drugs at different concentration gradients separately and monitored for 14 d. A mouse was euthanized at a loss of 20% of its initial weight and deemed to have died of poisoning.

[7] = test system: colo320 colorectal cancer tumor model
How it was run: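 Dosing was once a week for four weeks, with saline as control, in randomized groups of three mice. Groups were formed after subcutaneous colo320 xenografts (7.5×10^6 cells, right chest) grew to ≥120 mm^3 in female 6–8-week-old BALB/c nude mice.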

[8] = Tumor homogenate activation efficiency, breast cancer tissue (Examples 28, 37); type: in vitro ADME; conditions: pH 5.0, 37° C., 2 h; Table 10
How it was run: as §1

[9] = test system: colo320 (colorectal cancer tissue); assay: cells; type: cell-based; conditions: CCK8, 48 h; Table 6
How it was run: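 Colo320 cells, 5,000 per well, exposed to drug concentration series for 48 h at 37 °C, 5% CO2 (0.1% DMSO controls). Viability by CCK8, absorbance at 450 nm after about 2 h. Survival rates and IC50 calculated.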

[10] = Homogenate activation efficiency, heart tissue (Examples 28, 37); type: in vitro ADME; conditions: pH 5.0, 37° C., 2 h; Table 10
SJSA-1 (sarcoma tissue) = assay: cells; type: cell-based; conditions: CCK8, 48 h; Table 6
How it was run: (§2)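 Following a 48 h drug exposure of 5,000 seeded cells per well, wells received CCK8 and, after about 2 h incubation, optical density at 450 nm was recorded. IC50 values were computed from survival rates versus solvent-only wells.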

A2780 (ovarian cancer) = assay: cells; type: cell-based; conditions: CCK8, 48 h; Table 6
How it was run: as §2

[11] = test system: A549 (non-small cell lung cancer); assay: cells; type: cell-based; conditions: CCK8, 48 h; Table 6
How it was run: as §2

[12] = test system: SKBR3 (breast cancer tissue); assay: cells; type: cell-based; conditions: CCK8, 48 h; Table 6
How it was run: as §2

[13] = 45 mg/kg once a week for three weeks
[14] = 45 mg/kg once a week for four weeks, Table 8
[15] = Table 14 (Example 43), dose 45 mg/kg, once a week for four weeks, BALB/c mice
[16] = 15 mg/kg once a week for four weeks, Table 8
[17] = 15 mg/kg once a week for three weeks
[18] = Table 13 (Example 42), dose 45 mg/kg, once a week for four weeks, BALB/c mice

| Structure (SMILES) | Percentage of release efficiency (%) Non-small cell lung cancer tissue (A549) [1] [%] | Percentage of release efficiency (%) Ovarian cancer tissue (A2780) [2] [%] | Mouse weight (%) [3, 13] | Percentage of release efficiency (%) Colorectal cancer tissue (colo320) [4] [%] | Percentage of release efficiency (%) Sarcoma tissue (SJSA1) [5] [%] | MTD at 14 d [6] [mg/kg] | Mouse weight (%) [7, 14] | Mouse weight (%) [7, 15] | Percentage of release efficiency (%) Breast cancer tissue (SKBR3) [8] [%] | IC50 Colorectal cancer tissue (colo320) [9] [µg/mL] | Percentage of release efficiency (%) Heart tissue [10] [%] | IC50 Sarcoma tissue (SJSA-1) (SJSA-1 (sarcoma tissue)) [µg/mL] | IC50 Ovarian cancer tissue (A2780) (A2780 (ovarian cancer)) [µg/mL] | IC50 Non-small cell lung cancer tissue (A549) [11] [µg/mL] | IC50 Breast cancer tissue (SKBR3) [12] [µg/mL] | Mouse weight (%) [7, 16] | SJSA-1 (sarcoma tissue) growth rate (%) [3, 13] [%] | SJSA-1 (sarcoma tissue) mean tumor volume (mm^3) [3, 13] [mm^3] | colo320 (colorectal cancer cell) growth rate (%) [7, 14] [%] | colo320 (colorectal cancer cell) mean tumor volume (mm^3) [7, 14] [mm^3] | also measured |
| --- | --- | --- | --- | --- | --- | --- | --- | --- | --- | --- | --- | --- | --- | --- | --- | --- | --- | --- | --- | --- | --- |
| CC[C@@]1(O)C(=O)OCc2c1cc1n(c2=O)Cc2c-1nc1ccccc1c2CCN(C)C(=O)[C@H](CC(C)C)NC(=O)[C@H](CC(N)=O)NC(=O)[C@H](C)NC(=O)[C@H](C)NC(=O)CCOCCOCCOCCOCCOCCOCCNC(=O)CCN1C(=O)C=CC1=O [MI-6PEG-AANL-D1] ({Propanoyl(3-maleimido)-PEG6}-AANL-X7) | 69.5 | 66.4 | +29% | 72.4 | 81.2 | 200 | +16% | +16% | 80 | 3.82 (≈ 3.03 µM) | 3 | 2.33 (≈ 1.85 µM) | 2.09 (≈ 1.66 µM) | 3.05 (≈ 2.42 µM) | 3.25 (≈ 2.58 µM) |  |  |  |  |  |  |
| CC[C@@]1(O)C(=O)OCc2c1cc1n(c2=O)Cc2c-1nc1ccccc1c2CCN(C(=O)[C@H](CC(C)C)NC(=O)[C@H](CC(N)=O)NC(=O)[C@H](C)NC(=O)[C@H](C)NC(=O)CCOCCOCCOCCOCCOCCOCCNC(=O)CCN1C(=O)C=CC1=O)C1CCCC1 [MI-6PEG-AANL-D8] ({Propanoyl(3-maleimido)-PEG6}-AANL-X8) | 68.4 | 71 | +17% | 78.9 | 81.1 | 200 | +15% |  | 70.2 | 2.97 (≈ 2.26 µM) | 2.2 | 1.54 (≈ 1.17 µM) | 1.27 (≈ 0.965 µM) | 2.27 (≈ 1.73 µM) | 1.98 (≈ 1.51 µM) | +33% |  |  |  |  |  |
| CC[C@@]1(O)C(=O)OCc2c1cc1n(c2=O)Cc2c-1nc1ccccc1c2CCN(C(=O)[C@H](CC(C)C)NC(=O)[C@H](Cc1ccccc1)NC(=O)CNC(=O)CNC(=O)CCOCCOCCOCCOCCOCCOCCNC(=O)CCN1C(=O)C=CC1=O)C(C)C [MI-6PEG-GGFL-Belotecan] ({Propanoyl(3-maleimido)-PEG6}-GGFL-Belotecan) | 77.3 | 73.6 | +22% | 83.1 | 68 | 100 | +5% | +5% | 73.2 | 2.86 (≈ 2.21 µM) | 1.8 | 1.24 (≈ 0.958 µM) | 1.91 (≈ 1.48 µM) | 2.21 (≈ 1.71 µM) | 3.69 (≈ 2.85 µM) | +27% | 995.32 | 1254.1 | 671.56 | 789.4 | Mouse weight (%) [3, 17]: +27%; SJSA-1 (sarcoma tissue) growth rate (%) [3, 17]: 1134.95%; SJSA-1 (sarcoma tissue) mean tumor volume (mm^3) [3, 17]: 1278.6 mm^3; colo320 (colorectal cancer cell) growth rate (%) [7, 16]: 994.05%; colo320 (colorectal cancer cell) mean tumor volume (mm^3) [7, 16]: 1254.2 mm^3; Mouse weight (%) [7, 18]: +5%; colo320 (colorectal cancer cell) growth rate (%) [7, 18]: 671.56%; colo320 (colorectal cancer cell) mean tumor volume (mm^3) [7, 18]: 789.4 mm^3; colo320 (colorectal cancer cell) growth rate (%) [7, 15]: 671.56%; colo320 (colorectal cancer cell) mean tumor volume (mm^3) [7, 15]: 789.4 mm^3 |
| CC[C@@]1(O)C(=O)OCc2c1cc1n(c2=O)Cc2c-1nc1ccccc1c2CCN(C)C(=O)[C@H](CC(C)C)NC(=O)[C@H](Cc1ccccc1)NC(=O)CNC(=O)CNC(=O)CCOCCOCCOCCOCCOCCOCCNC(=O)CCN1C(=O)C=CC1=O [MI-6PEG-GGFL-D1] ({Propanoyl(3-maleimido)-PEG6}-GGFL-X7) | 82.5 | 80 | +11% | 86.7 | 73.5 | 120 | +19% | +19% | 69.5 |  | 1.4 |  |  |  |  |  | 1181.64 | 1485.2 | 766.16 | 900.6 | Mouse weight (%) [7, 18]: +19%; colo320 (colorectal cancer cell) growth rate (%) [7, 18]: 766.16%; colo320 (colorectal cancer cell) mean tumor volume (mm^3) [7, 18]: 900.6 mm^3; colo320 (colorectal cancer cell) growth rate (%) [7, 15]: 766.16%; colo320 (colorectal cancer cell) mean tumor volume (mm^3) [7, 15]: 900.6 mm^3 |
